The values that follow come from the Human Domainome abundance scans (Beltran et al. 2025).

± gives the uncertainty stated by the source.

B1: POU domain, class 2, transcription factor 1, residues 285 to 354; numbered along this chain, P14859 (parent)
chain: LEELEQFAKTFKQRRIKLGFTQGDVGLAMGKLYGNDFSQTTISRFEALNLSFKNMCKLKPLLEKWLNDAE

In the data set the parent is B1. Kind of data set: abundance fitness (aPCA) (normalised: wild type 0, dead -1); higher = more abundant; growth selection in yeast, the domain comes from the species named. To be noted: Homo sapiens.
In the case of LEELEQFAKTFKQRRIKLGFTQGDVGLAMGKLYGNDFSQTTISRFEALNLSFKNMCKLKPRLEKWLNDAE, the abundance fitness stood at 0.008 ± 0.047.
Next, LEELEQFAKTFKQRRIKLGFTQGDVGLAMGKLYGNDFSQTTISRFEALNLSFKNMCKLKPPLEKWLNDAE: -0.006 ± 0.063.
Next, LEELEQFAKTFKQRRIKLGFTQGDVGLAMGKLYGNDFSQTTISRFEALNLSFKNMCKLKPSLEKWLNDAE: -0.078 ± 0.033.
Consider LEELEQFAKTFKQRRIKLGFTQGDVGLAMGKLYGNDFSQTTISRFEALNLSFKNMCKLKPILEKWLNDAE, for which the abundance fitness was -0.097 ± 0.084.
In the case of LEELEQFAKTFKQRRIKLGFTQGDVGLAMGKLYGNDFSQTTISRFEALNLSFKNMCKLKPCLEKWLNDAE, the abundance fitness was -0.188 ± 0.052.
The figure for LEELEQFAKTFKQRRIKLGFTQGDVGLAMGKLYGNDFSQTTISRFEALNLSFKNMCKLKPGLEKWLNDAE is -0.09 ± 0.036; for LEELEQFAKTFKQRRIKLGFTQGDVGLAMGKLYGNDFSQTTISRFEALNLSFKNMCKLKPMLEKWLNDAE it is -0.053 ± 0.037; for LEELEQFAKTFKQRRIKLGFTQGDVGLAMGKLYGNDFSQTTISRFEALNLSFKNMCKLKPHLEKWLNDAE it is 0.016 ± 0.075.
Next, LEELEQFAKTFKQRRIKLGFTQGDVGLAMGKLYGNDFSQTTISRFEALNLSFKNMCKLKPVLEKWLNDAE: -0.008 ± 0.025; LEELEQFAKTFKQRRIKLGFTQGDVGLAMGKLYGNDFSQTTISRFEALNLSFKNMCKLKPQLEKWLNDAE: -0.053 ± 0.047; LEELEQFAKTFKQRRIKLGFTQGDVGLAMGKLYGNDFSQTTISRFEALNLSFKNMCKLKPNLEKWLNDAE: -0.017 ± 0.11.
For the variant LEELEQFAKTFKQRRIKLGFTQGDVGLAMGKLYGNDFSQTTISRFEALNLSFKNMCKLKPKLEKWLNDAE, the abundance fitness was -0.031 ± 0.042.
For LEELEQFAKTFKQRRIKLGFTQGDVGLAMGKLYGNDFSQTTISRFEALNLSFKNMCKLKPTLEKWLNDAE, the abundance fitness was -0.026 ± 0.053.
Next, LEELEQFAKTFKQRRIKLGFTQGDVGLAMGKLYGNDFSQTTISRFEALNLSFKNMCKLKPFLEKWLNDAE: -0.005 ± 0.047.
For the variant LEELEQFAKTFKQRRIKLGFTQGDVGLAMGKLYGNDFSQTTISRFEALNLSFKNMCKLKPDLEKWLNDAE, the abundance fitness was -0.075 ± 0.061.
With LEELEQFAKTFKQRRIKLGFTQGDVGLAMGKLYGNDFSQTTISRFEALNLSFKNMCKLKPWLEKWLNDAE, the abundance fitness is -0.038 ± 0.035.
Next, LEELEQFAKTFKQRRIKLGFTQGDVGLAMGKLYGNDFSQTTISRFEALNLSFKNMCKLKPLLVKWLNDAE: -0.095 ± 0.086.
LEELEQFAKTFKQRRIKLGFTQGDVGLAMGKLYGNDFSQTTISRFEALNLSFKNMCKLKPLLMKWLNDAE: the abundance fitness was -0.031 ± 0.048.
The figure for LEELEQFAKTFKQRRIKLGFTQGDVGLAMGKLYGNDFSQTTISRFEALNLSFKNMCKLKPLLRKWLNDAE is -0.199 ± 0.1; for LEELEQFAKTFKQRRIKLGFTQGDVGLAMGKLYGNDFSQTTISRFEALNLSFKNMCKLKPLLSKWLNDAE it is -0.082 ± 0.11; for LEELEQFAKTFKQRRIKLGFTQGDVGLAMGKLYGNDFSQTTISRFEALNLSFKNMCKLKPLLKKWLNDAE it is -0.126 ± 0.09.
Next, LEELEQFAKTFKQRRIKLGFTQGDVGLAMGKLYGNDFSQTTISRFEALNLSFKNMCKLKPLLIKWLNDAE: -0.22 ± 0.13; LEELEQFAKTFKQRRIKLGFTQGDVGLAMGKLYGNDFSQTTISRFEALNLSFKNMCKLKPLLTKWLNDAE: -0.1 ± 0.12.
The figure for LEELEQFAKTFKQRRIKLGFTQGDVGLAMGKLYGNDFSQTTISRFEALNLSFKNMCKLKPLLAKWLNDAE is 0.07 ± 0.081; for LEELEQFAKTFKQRRIKLGFTQGDVGLAMGKLYGNDFSQTTISRFEALNLSFKNMCKLKPLLGKWLNDAE it is -0.023 ± 0.11; for LEELEQFAKTFKQRRIKLGFTQGDVGLAMGKLYGNDFSQTTISRFEALNLSFKNMCKLKPLLNKWLNDAE it is -0.199 ± 0.26.
For the variant LEELEQFAKTFKQRRIKLGFTQGDVGLAMGKLYGNDFSQTTISRFEALNLSFKNMCKLKPLLDKWLNDAE, the abundance fitness is -0.45 ± 0.36.
Next, LEELEQFAKTFKQRRIKLGFTQGDVGLAMGKLYGNDFSQTTISRFEALNLSFKNMCKLKPLLLKWLNDAE: 0.024 ± 0.046; LEELEQFAKTFKQRRIKLGFTQGDVGLAMGKLYGNDFSQTTISRFEALNLSFKNMCKLKPLLPKWLNDAE: -0.571 ± 0.19; LEELEQFAKTFKQRRIKLGFTQGDVGLAMGKLYGNDFSQTTISRFEALNLSFKNMCKLKPLLWKWLNDAE: -0.075 ± 0.15.
Next, LEELEQFAKTFKQRRIKLGFTQGDVGLAMGKLYGNDFSQTTISRFEALNLSFKNMCKLKPLLQKWLNDAE: -0.07 ± 0.06; LEELEQFAKTFKQRRIKLGFTQGDVGLAMGKLYGNDFSQTTISRFEALNLSFKNMCKLKPLLEPWLNDAE: -0.387 ± 0.036.
LEELEQFAKTFKQRRIKLGFTQGDVGLAMGKLYGNDFSQTTISRFEALNLSFKNMCKLKPLLEWWLNDAE: the abundance fitness is -0.113 ± 0.033.
Next, LEELEQFAKTFKQRRIKLGFTQGDVGLAMGKLYGNDFSQTTISRFEALNLSFKNMCKLKPLLEGWLNDAE: -0.026 ± 0.03; LEELEQFAKTFKQRRIKLGFTQGDVGLAMGKLYGNDFSQTTISRFEALNLSFKNMCKLKPLLEAWLNDAE: -0.036 ± 0.025.
The figure for LEELEQFAKTFKQRRIKLGFTQGDVGLAMGKLYGNDFSQTTISRFEALNLSFKNMCKLKPLLEDWLNDAE is -0.037 ± 0.05; for LEELEQFAKTFKQRRIKLGFTQGDVGLAMGKLYGNDFSQTTISRFEALNLSFKNMCKLKPLLECWLNDAE it is -0.143 ± 0.068.
The figure for LEELEQFAKTFKQRRIKLGFTQGDVGLAMGKLYGNDFSQTTISRFEALNLSFKNMCKLKPLLEQWLNDAE is -0.011 ± 0.037; for LEELEQFAKTFKQRRIKLGFTQGDVGLAMGKLYGNDFSQTTISRFEALNLSFKNMCKLKPLLERWLNDAE it is -0.019 ± 0.028; for LEELEQFAKTFKQRRIKLGFTQGDVGLAMGKLYGNDFSQTTISRFEALNLSFKNMCKLKPLLETWLNDAE it is -0.04 ± 0.03.
For LEELEQFAKTFKQRRIKLGFTQGDVGLAMGKLYGNDFSQTTISRFEALNLSFKNMCKLKPLLEEWLNDAE, the abundance fitness was -0.02 ± 0.029.
The figure for LEELEQFAKTFKQRRIKLGFTQGDVGLAMGKLYGNDFSQTTISRFEALNLSFKNMCKLKPLLEHWLNDAE is -0.1 ± 0.058.
Next, LEELEQFAKTFKQRRIKLGFTQGDVGLAMGKLYGNDFSQTTISRFEALNLSFKNMCKLKPLLESWLNDAE: 0.011 ± 0.027.
Turning to LEELEQFAKTFKQRRIKLGFTQGDVGLAMGKLYGNDFSQTTISRFEALNLSFKNMCKLKPLLENWLNDAE, the abundance fitness was -0.022 ± 0.043.
Next, LEELEQFAKTFKQRRIKLGFTQGDVGLAMGKLYGNDFSQTTISRFEALNLSFKNMCKLKPLLEYWLNDAE: -0.225 ± 0.058.
The figure for LEELEQFAKTFKQRRIKLGFTQGDVGLAMGKLYGNDFSQTTISRFEALNLSFKNMCKLKPLLEKFLNDAE is 0.009 ± 0.18; for LEELEQFAKTFKQRRIKLGFTQGDVGLAMGKLYGNDFSQTTISRFEALNLSFKNMCKLKPLLEKGLNDAE it is -0.555 ± 0.033; for LEELEQFAKTFKQRRIKLGFTQGDVGLAMGKLYGNDFSQTTISRFEALNLSFKNMCKLKPLLEKALNDAE it is -0.432 ± 0.043.
Next, LEELEQFAKTFKQRRIKLGFTQGDVGLAMGKLYGNDFSQTTISRFEALNLSFKNMCKLKPLLEKILNDAE: -0.633 ± 0.44; LEELEQFAKTFKQRRIKLGFTQGDVGLAMGKLYGNDFSQTTISRFEALNLSFKNMCKLKPLLEKLLNDAE: -0.305 ± 0.07; LEELEQFAKTFKQRRIKLGFTQGDVGLAMGKLYGNDFSQTTISRFEALNLSFKNMCKLKPLLEKMLNDAE: -0.22 ± 0.073.
In the case of LEELEQFAKTFKQRRIKLGFTQGDVGLAMGKLYGNDFSQTTISRFEALNLSFKNMCKLKPLLEKELNDAE, the abundance fitness is -0.825 ± 0.081.
Next, LEELEQFAKTFKQRRIKLGFTQGDVGLAMGKLYGNDFSQTTISRFEALNLSFKNMCKLKPLLEKDLNDAE: -0.968 ± 0.17; LEELEQFAKTFKQRRIKLGFTQGDVGLAMGKLYGNDFSQTTISRFEALNLSFKNMCKLKPLLEKCLNDAE: -0.35 ± 0.17; LEELEQFAKTFKQRRIKLGFTQGDVGLAMGKLYGNDFSQTTISRFEALNLSFKNMCKLKPLLEKHLNDAE: -0.5 ± 0.18.
In the case of LEELEQFAKTFKQRRIKLGFTQGDVGLAMGKLYGNDFSQTTISRFEALNLSFKNMCKLKPLLEKKLNDAE, the abundance fitness was -0.961 ± 0.11.
For the variant LEELEQFAKTFKQRRIKLGFTQGDVGLAMGKLYGNDFSQTTISRFEALNLSFKNMCKLKPLIEKWLNDAE, the abundance fitness is -0.091 ± 0.041.
The figure for LEELEQFAKTFKQRRIKLGFTQGDVGLAMGKLYGNDFSQTTISRFEALNLSFKNMCKLKPLWEKWLNDAE is -1.08 ± 0.17.
Next, LEELEQFAKTFKQRRIKLGFTQGDVGLAMGKLYGNDFSQTTISRFEALNLSFKNMCKLKPLFEKWLNDAE: -0.017 ± 0.032.
Next, LEELEQFAKTFKQRRIKLGFTQGDVGLAMGKLYGNDFSQTTISRFEALNLSFKNMCKLKPLAEKWLNDAE: -0.149 ± 0.034; LEELEQFAKTFKQRRIKLGFTQGDVGLAMGKLYGNDFSQTTISRFEALNLSFKNMCKLKPLMEKWLNDAE: -0.006 ± 0.024; LEELEQFAKTFKQRRIKLGFTQGDVGLAMGKLYGNDFSQTTISRFEALNLSFKNMCKLKPLTEKWLNDAE: -0.406 ± 0.041.
For the variant LEELEQFAKTFKQRRIKLGFTQGDVGLAMGKLYGNDFSQTTISRFEALNLSFKNMCKLKPLGEKWLNDAE, the abundance fitness is -0.545 ± 0.067.
The figure for LEELEQFAKTFKQRRIKLGFTQGDVGLAMGKLYGNDFSQTTISRFEALNLSFKNMCKLKPLPEKWLNDAE is -0.699 ± 0.064; for LEELEQFAKTFKQRRIKLGFTQGDVGLAMGKLYGNDFSQTTISRFEALNLSFKNMCKLKPLKEKWLNDAE it is -0.937 ± 0.06; for LEELEQFAKTFKQRRIKLGFTQGDVGLAMGKLYGNDFSQTTISRFEALNLSFKNMCKLKPLEEKWLNDAE it is -0.914 ± 0.083.
In the case of LEELEQFAKTFKQRRIKLGFTQGDVGLAMGKLYGNDFSQTTISRFEALNLSFKNMCKLKPLSEKWLNDAE, the abundance fitness is -0.567 ± 0.031.
With LEELEQFAKTFKQRRIKLGFTQGDVGLAMGKLYGNDFSQTTISRFEALNLSFKNMCKLKPLCEKWLNDAE, the abundance fitness is -0.18 ± 0.14.
The figure for LEELEQFAKTFKQRRIKLGFTQGDVGLAMGKLYGNDFSQTTISRFEALNLSFKNMCKLKPLDEKWLNDAE is -0.354 ± 0.15; for LEELEQFAKTFKQRRIKLGFTQGDVGLAMGKLYGNDFSQTTISRFEALNLSFKNMCKLKPLQEKWLNDAE it is -0.913 ± 0.069.
Consider LEELEQFAKTFKQRRIKLGFTQGDVGLAMGKLYGNDFSQTTISRFEALNLSFKNMCKLKPLYEKWLNDAE, for which the abundance fitness is -0.069 ± 0.041.
The figure for LEELEQFAKTFKQRRIKLGFTQGDVGLAMGKLYGNDFSQTTISRFEALNLSFKNMCKLKPLVEKWLNDAE is -0.102 ± 0.026; for LEELEQFAKTFKQRRIKLGFTQGDVGLAMGKLYGNDFSQTTISRFEALNLSFKNMCKLKSLLEKWLNDAE it is -0.029 ± 0.029.
Next, LEELEQFAKTFKQRRIKLGFTQGDVGLAMGKLYGNDFSQTTISRFEALNLSFKNMCKLKYLLEKWLNDAE: -0.217 ± 0.04; LEELEQFAKTFKQRRIKLGFTQGDVGLAMGKLYGNDFSQTTISRFEALNLSFKNMCKLKVLLEKWLNDAE: -0.141 ± 0.064.
The figure for LEELEQFAKTFKQRRIKLGFTQGDVGLAMGKLYGNDFSQTTISRFEALNLSFKNMCKLKRLLEKWLNDAE is -0.107 ± 0.026.
In the case of LEELEQFAKTFKQRRIKLGFTQGDVGLAMGKLYGNDFSQTTISRFEALNLSFKNMCKLKTLLEKWLNDAE, the abundance fitness is -0.08 ± 0.036.
